{"source": "paper PMC4733404", "molecular_target": "BDBV GP[change] (recombinant GP form that lacks the highly glycosylated mucin-like domains) (Bundibugyo virus (BDBV))", "assay": "negative-stain single-particle electron microscopy"}
{"substance": "BDBV GP[change] (recombinant GP form that lacks the highly glycosylated mucin-like domains) (domain or fragment)", "values": [{"measurement": "stoichiometry N", "result": 3}]}
